One may read the Kd as the concentration at which binding is half-saturated. Higher therefore signals lower affinity.

The target of one data set is T1, IL-6 (Homo sapiens, UniProt P05231).
T1 construct: purchased R&D Systems 206-IL-200/CF
In words: Kinetic analysis using surface plasmon resonance (Biacore T200), immobilized IL-6. The class given is binding. How it is done:
Kinetic constants (ka and kd) and affinities (KD) were determined for His6-tagged Y variants using a Biacore T200 instrument (GE Healthcare). Target proteins C4, IL-6 and insulin, respectively, were immobilized in separate flow cells on the carboxylated dextran layer of different CM5 chip surfaces (GE Healthcare). Immobilization was performed using amine coupling chemistry according to the manufacturer's protocol and PBS pH 7.4 supplemented with 0.1 Tween20 (PBST 0.1%) as running buffer. The ligand immobilization levels on the surfaces were 3280-8830 RU for C4, 495-1184 RU for IL-6, and 270-282 RU for insulin. One flow cell surface on each chip was activated and deactivated for use as blank during analyte injections. In the kinetic experiment, PBST 0.1% was used as running buffer at a flow rate of 30 μl/min. The analytes, i.e. Y variants, were each diluted in PBST 0.1 buffer at concentrations of 1000, 500, 100, 50 and 10 nM and injected for 5 min, followed by dissociation in running buffer for 3 min. After dissociation, the surfaces were regenerated with one injection of 30 μl 10 mM HCl. Kinetic constants were calculated from the sensorgrams using the Langmuir 1:1 model of Biacore T200 Evaluation software 2.0 (GE Healthcare).
Produced Y variants were subjected to CD and SPR analyses according to the methods described in Example 1.
Produced Y variants were subjected to CD and SPR analyses according to the methods described in Example 1. In addition, CD spectra of selected IL-6 binding variants were also recorded at 60, 70, 80 and 90° C.
The Y variants were cloned, produced and characterized according to the general methods described in Example 1. Produced Y variants with point mutations were subjected to CD and SPR analyses as described in Example 1. In addition, CD spectra of the IL-6 binding variants were also recorded at 60, 70, 80 and 90° C.
(In general: In SPR one partner is held on a chip, and binding of the other changes the refractive index at the surface.)

The nature of data set [1]: Circular dichroism spectroscopy analysis (CD spectra, variable temperature measurement, refolding). In kind it is physicochemical. As to conditions: for α-helical content / ability to fold into an α-helical structure: CD spectrum at 20° C.; for Tm: Table 2, Ylib001Naive.I selection, MGSSHHHHHHGSS-[Y#####]-ASGSVD, 0.5 mg/ml in PBS, 221 nm, 20-90° C. In a few lines: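 Y variants at 0.5 mg/ml in PBS were scanned from 250 to 195 nm at 20° C. in a 1 mm cell. Tm came from the 221 nm signal during heating from 20 to 90° C. at 5° C./min, and a second 20° C. spectrum after heating assessed refolding. Selected IL-6 binders were also recorded at 60, 70, 80 and 90° C.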
A general note: Circular dichroism is the unequal absorption of left and right circularly polarised light.

A short description of data set [2]: Fraction of soluble product on expression in E. coli, estimated from SDS-PAGE. The class given is physicochemical. The settings on record: MGSSHHHHHHGSS-[Y#####]-A; for Estimated soluble fraction: Table 7, Ylib002Naive.I selection; for Est soluble fraction: Table 9, mutation study 5. How it is done: E. coli T7E2 cells were transformed with plasmids containing the gene fragment of each respective Y variant. The resulting recombinant strains were generally cultivated in media supplemented with 50 μg/ml kanamycin at 30-37° C. in 50 ml scale using the EnPresso protocol (Enpresso GmbH). In order to induce protein expression, isopropyl-β-D-1-thiogalactopyranoside (IPTG) was added to a final concentration of 0.5 mM at an optical density at 600 nm (OD600) of approximately 10. After induction, the cultures were incubated for 16 h. The cells were harvested by centrifugation. Alternatively, the culture was performed at 37° C. in 980 ml of TSB-YE medium (tryptic soy broth 30 g/l supplemented with yeast extract 5 g/l) supplemented with 50 μg/ml kanamycin, and protein expression induced with 0.2 mM IPTG at OD600=2, followed by incubation for 5 h before harvesting of the cells by centrifugation. The total yield as well as the fraction of soluble and insoluble product of the respective Y variant was estimated based on SDS-PAGE analysis.

The mark [3] stands for this setting: Table 2, His6-tagged Y variant, MGSSHHHHHHGSS-[Y#####]-ASGSVD.
Where [4] appears, read: Table 7, MGSSHHHHHHGSS-[Y#####]-A.
Setting [5] is: Table 9, mutation study 5, MGSSHHHHHHGSS-[Y#####]-A.

T1 sequence (P05231 30-212): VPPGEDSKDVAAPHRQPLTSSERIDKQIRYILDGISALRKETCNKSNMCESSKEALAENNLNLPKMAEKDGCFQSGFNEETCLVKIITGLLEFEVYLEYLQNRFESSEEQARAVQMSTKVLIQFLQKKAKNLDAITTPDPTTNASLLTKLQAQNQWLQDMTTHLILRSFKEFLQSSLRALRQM

For the substance “Y00035: IL-6 binding Y variant from Ylib001Naive.I, SEQ ID NO:50 (LAEAKEAANAELDSYGVQANSIEAIEQGLFVEVVELLKELILAALP; Engineered IL-6 binding Y variant)”, binding with IL-6 (setting [3]) was characterised by a dissociation constant (Kd) of 360 nM. Moreover, in data set [1], the “α-helical content / ability to fold into an α-helical structure” value was “limited ability” and the Tm came out at 60 °C.
For “Y00076: IL-6 binding Y variant from Ylib001Naive.I, SEQ ID NO:61 (LAEAKEAALAELDSKGIEEKSISEIEAGLWVEVVELLKESILAVLP; Engineered IL-6 binding Y variant)” the same measures were 430 nM, “limited ability” and 47 °C.
“Y02374: IL-6 binding Y variant from Ylib002Naive.I, SEQ ID NO:72 (LAEAKEAAIAELDSKGVGAAEIKRIQAAELVEIVQLLKQAILAVLPA; Engineered IL-6 binding Y variant)”: the Estimated soluble fraction in data set [2] is 100%. In the data set with IL-6 (setting [4]), this substance showed a dissociation constant Kd of 120 nM, a ka of 14000 M⁻¹ s⁻¹ and a kd of 0.0017 s⁻¹.
As for “Y02415: IL-6 binding Y variant from Ylib002Naive.I, SEQ ID NO:74 (LAEAKEAAIAELDSKGVGAGDIKDIQDALLVEIVQLLKQAILAVLPA; Engineered IL-6 binding Y variant)”, the Estimated soluble fraction in data set [2] is 100%. In the data set with IL-6 (setting [4]), the affinity, expressed as Kd, was 160 nM; the ka was 9700 M⁻¹ s⁻¹; the kd was determined as 0.0015 s⁻¹.
For the substance “Y02447: IL-6 binding Y variant from Ylib002Naive.I, SEQ ID NO:76 (LAEAKEAAIAELDSKGVGAHGIKEIQDAILVEIVQLLKQAILAALPA; Engineered IL-6 binding Y variant)”, in data set [2], the Estimated soluble fraction is on record as 100%. Besides, in the data set with IL-6 (setting [4]), binding was put at a Kd of 160 nM, the ka was found to be 11000 M⁻¹ s⁻¹ and the kd came to 0.0017 s⁻¹.
Regarding “Y02465: IL-6 binding Y variant from Ylib002Naive.I, SEQ ID NO:78 (LAEAKEAAIAELDSKGVGANHIKAIQHAQFVEIVQLLKQAILAVLPA; Engineered IL-6 binding Y variant)”, the Estimated soluble fraction in data set [2] was 100%. In the data set with IL-6 (setting [4]), this substance came in with an equilibrium dissociation constant (Kd) of 270 nM, a ka of 7500 M⁻¹ s⁻¹ and a kd of 0.0021 s⁻¹.
Taken in the same sequence, the figures for “Y02495: IL-6 binding Y variant from Ylib002Naive.I, SEQ ID NO:79 (LAEAKEAAIAELDSKGVGAEEIKEIQGAMLVEIVQLLKQAILAVLPA; Engineered IL-6 binding Y variant)” were 100%, 240 nM, 7100 M⁻¹ s⁻¹ and 0.0017 s⁻¹.
“Y02697: IL-6 binding Y variant, Y02444 with I9L, SEQ ID NO:81 (LAEAKEAALAELDSKGVGAVEIKQIQEALLVEIVQLLKQAILAVLPA; Engineered IL-6 binding Y variant)”: the Est soluble fraction in data set [2] is 100%. In the data set with IL-6 (setting [5]), this substance yielded a Kd of 150 nM, a ka of 50000 M⁻¹ s⁻¹ and a kd of 0.009 s⁻¹.
Taken in the same sequence, the figures for “Y02698: IL-6 binding Y variant, Y02444 with K15Y, SEQ ID NO:82 (LAEAKEAAIAELDSYGVGAVEIKQIQEALLVEIVQLLKQAILAVLPA; Engineered IL-6 binding Y variant)” were 100%, 120 nM, 28000 M⁻¹ s⁻¹ and 0.0033 s⁻¹.
For “Y02699: IL-6 binding Y variant, Y02444 with Q26E, SEQ ID NO:83 (LAEAKEAAIAELDSKGVGAVEIKQIEEALLVEIVQLLKQAILAVLPA; Engineered IL-6 binding Y variant)” the same measures were 100%, 200 nM, 19000 M⁻¹ s⁻¹ and 0.0029 s⁻¹.

The values above are taken from patent US11505576B2, “Polypeptides based on a scaffold” (AFFIBODY AB, priority 2018, dated 2022).
